Where two headings read alike, the source gives them in different places. Each block holds one molecule with its values, some of them ahead of it. Square brackets hold non-standard residues; d marks the D form. Ends that are not written are not given here. Peptide text beside a SMILES is read from it. Hyp = O=C(O)[C@@H]1C[C@@H](O)CN1
Assays:
[1] = biological target: T1, DPP-4 (manufactured by Sigma, derived from porcine kidney) (Sus scrofa, UniProt P22411); experiment: DPP-4 inhibition rate and IC50 measurement, fluorescence of AMC freed from Gly-Pro-MCA; assay type: biochemical; conditions: for inhibition at 350 µg/mL / Inhibition rate (%) at 0.35 mg/ml time: sample 0.35 mg/ml, substrate Gly-Pro-MCA, pH 7.5, 37° C.; for inhibition at 350 µg/mL: read-out: Inhibition rate (%) at 0.35 mg/ml time
T1 construct: derived from porcine kidney; purchased Sigma; host or cells: porcine kidney (tissue-derived)
Procedure: A sample liquid 35 μl obtained by dissolving a sample 1 mg in 50 mM tris-hydrochloric acid buffer (pH 7.5) 1 ml and DPP-4 (manufactured by Sigma, derived from porcine kidney; 8.6 mU/ml) 15 μl that had been dissolved in 50 mM tris-hydrochloric acid buffer (pH 7.5) were mixed in a microtiter plate well (manufactured by NUNC, trade name “237015”) and incubated at 37° C. for 10 minutes.
Thereto, 50 μl of a substrate solution (one obtained by dissolving glycyl-Pro-4-methylcoumarin-7-amide (Gly-Pro-MCA) in 50 mM tris-hydrochloric acid buffer (pH 7.5) so as to be 10 μM) that had in advance heated to and kept at 37° C. was added, mixed, and allowed to react at 37° C. for 20 minutes.
The fluorescence intensity of 7-amino-4-methylcoumarin (AMC) that was freed by DPP-4 was measured with time by a microplate reader type fluorescence detector (manufactured by Corona Electric Co., Ltd., trade name “SH-9000”). Note that the measurement wavelength was an excitation wavelength of 380 nm and a measurement wavelength of 460 nm. Note that one obtained by using the same amount of 50 mM tris-hydrochloric acid buffer (pH 7.5) in replace of the sample was used as a control; and the fluorescence intensity thereof was measured.
The activity of DPP-4 was expressed by an average gradient of change in the amount of the fluorescence intensity during the reaction time; and, as for DPP-4 inhibition rate, difference obtained by, with the control as 100%, subtracting the activity of the sample from the above-mentioned control was calculated as an inhibition rate (%).
In accordance with the above method of measuring a DPP-4 inhibition rate, sample concentration was changed between 0.001 and 7.2 μmol/ml to obtain the inhibition rate, thereby calculating the 50% inhibitory concentration (IC50 value) of the activity of DPP-4.

[2] = biological target: T2, DPP-4 (manufactured by Sigma, derived from porcine kidney) (porcine, UniProt P22411 38-766, limits assumed); experiment: cell-based or functional assay
[3] = biological target: T2, DPP-4 (manufactured by Sigma, derived …); experiment: cell-based or functional assay; remark: listed apart in the source
[4] = Table 1, sample concentration changed between 0.001 and 7.2 μmol/ml, read-out: IC50 value
[5] = Table 2, sample concentration changed between 0.001 and 7.2 μmol/ml, read-out: IC50 value
[6] = Table 1, sample concentration changed between 0.001 and 7.2 μmol/ml

T1 sequence (P22411 whole entry): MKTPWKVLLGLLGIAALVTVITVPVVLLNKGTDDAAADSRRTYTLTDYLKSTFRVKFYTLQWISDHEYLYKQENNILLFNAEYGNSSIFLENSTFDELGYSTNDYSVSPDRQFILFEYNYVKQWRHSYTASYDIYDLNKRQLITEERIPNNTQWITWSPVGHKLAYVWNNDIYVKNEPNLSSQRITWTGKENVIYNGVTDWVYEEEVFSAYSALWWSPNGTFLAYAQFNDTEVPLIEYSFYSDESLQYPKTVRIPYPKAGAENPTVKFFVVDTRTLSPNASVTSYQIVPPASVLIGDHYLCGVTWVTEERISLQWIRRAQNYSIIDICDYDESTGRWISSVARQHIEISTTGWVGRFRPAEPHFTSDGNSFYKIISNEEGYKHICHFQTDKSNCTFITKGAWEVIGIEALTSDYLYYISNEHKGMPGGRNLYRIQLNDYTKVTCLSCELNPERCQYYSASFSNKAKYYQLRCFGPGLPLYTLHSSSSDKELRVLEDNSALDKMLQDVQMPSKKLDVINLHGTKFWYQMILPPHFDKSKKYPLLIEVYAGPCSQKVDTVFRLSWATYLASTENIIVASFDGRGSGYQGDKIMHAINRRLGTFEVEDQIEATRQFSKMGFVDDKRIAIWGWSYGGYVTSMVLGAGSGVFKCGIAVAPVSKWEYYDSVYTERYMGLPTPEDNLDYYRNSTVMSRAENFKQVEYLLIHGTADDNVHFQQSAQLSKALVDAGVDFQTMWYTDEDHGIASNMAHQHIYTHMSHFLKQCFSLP
T2 sequence (P22411 38-766 limits assumed): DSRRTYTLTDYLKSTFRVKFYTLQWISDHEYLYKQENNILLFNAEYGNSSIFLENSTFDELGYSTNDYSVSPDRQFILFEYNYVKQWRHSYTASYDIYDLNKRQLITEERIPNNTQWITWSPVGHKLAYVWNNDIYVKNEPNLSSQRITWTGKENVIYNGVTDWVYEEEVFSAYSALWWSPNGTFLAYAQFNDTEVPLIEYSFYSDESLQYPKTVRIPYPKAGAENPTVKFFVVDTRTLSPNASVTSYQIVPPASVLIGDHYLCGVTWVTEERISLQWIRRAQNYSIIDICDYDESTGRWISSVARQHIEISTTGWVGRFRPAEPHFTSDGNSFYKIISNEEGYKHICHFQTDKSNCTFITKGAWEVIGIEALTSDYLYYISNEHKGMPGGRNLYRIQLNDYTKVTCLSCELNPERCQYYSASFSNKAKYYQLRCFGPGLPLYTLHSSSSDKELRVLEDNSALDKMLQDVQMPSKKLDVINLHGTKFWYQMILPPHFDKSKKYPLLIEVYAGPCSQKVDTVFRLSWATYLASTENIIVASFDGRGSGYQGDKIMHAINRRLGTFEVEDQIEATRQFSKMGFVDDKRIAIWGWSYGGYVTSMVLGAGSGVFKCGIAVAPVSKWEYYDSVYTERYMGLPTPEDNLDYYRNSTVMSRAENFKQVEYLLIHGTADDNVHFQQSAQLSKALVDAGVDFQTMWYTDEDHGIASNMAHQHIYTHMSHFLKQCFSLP

Molecule: C[C@H](NC(=O)[C@@H]1CCCN1C(=O)CN)C(=O)NCC(=O)N1CCC[C@H]1C(=O)N1C[C@H](O)C[C@H]1C(=O)O [Example 3, Gly-Pro-Ala-Gly-Pro-Hyp] (H-GPAGP[Hyp]-OH; N-terminus and C-terminus assumed)
IC50 [1, 4]: 70 µM

Molecule: C[C@H](NC(=O)[C@@H]1CCCN1C(=O)CN)C(=O)NCC(=O)O [Example 9, Gly-Pro-Ala-Gly] (H-GPAG-OH; N-terminus and C-terminus assumed)
IC50 [1, 4]: 150 µM

Molecule: C[C@H](NC(=O)CN)C(=O)O [Example 11, Gly-Ala] (H-Gly-Ala-OH; N-terminus and C-terminus assumed)
inhibition at 350 µg/mL ([1]; Table 1): 42.5%
IC50 [1, 4]: 3340 µM

Molecule: CC(C)C[C@H](N)C(=O)N1CCC[C@H]1C(=O)O [Example 16, Leu-Pro] (H-Leu-Pro-OH; N-terminus and C-terminus assumed)
inhibition at 350 µg/mL ([1]; Table 2): 92.1%
IC50 [1, 5]: 110 µM

Molecule: CC(C)C[C@H](N)C(=O)N1C[C@H](O)C[C@H]1C(=O)O [Example 20, Leu-Hyp] (H-Leu-[Hyp]-OH)
inhibition at 350 µg/mL ([1]; Table 2): 48.6%

Molecule: CC(C)C[C@H](N)C(=O)N1C[C@H](O)C[C@H]1C(=O)NCC(=O)O [Example 21, Leu-Hyp-Gly] (H-Leu-[Hyp]-Gly-OH)
inhibition at 350 µg/mL ([1]; Table 2): 89.3%
IC50 [1, 5]: 130 µM

Molecule: CC[C@H](C)[C@H](N)C(=O)N1C[C@H](O)C[C@H]1C(=O)NCC(=O)O [Example 22, Ile-Hyp-Gly] (H-Ile-[Hyp]-Gly-OH; N-terminus and C-terminus assumed)
inhibition at 350 µg/mL ([1]; Table 2): 71%
IC50 [1, 5]: 500 µM

Molecule: CC(C)C[C@H](N)C(=O)N1C[C@H](O)C[C@H]1C(=O)NCC(=O)N1CCC[C@H]1C(=O)N[C@@H](C)C(=O)O [Example 23, Leu-Hyp-Gly-Pro-Ala] (H-L[Hyp]GPA-OH)
inhibition at 350 µg/mL ([1]; Table 2): 52.1%
IC50 [1, 5]: 830 µM

Molecule: O=C(O)CNC(=O)[C@@H]1C[C@@H](O)CN1C(=O)[C@@H]1CCCN1 [Example 24, Pro-Hyp-Gly] (H-Pro-[Hyp]-Gly-OH; N-terminus and C-terminus assumed)
inhibition at 350 µg/mL ([1]; Table 2): 27.2%
IC50 [1, 5]: 4640 µM

Molecule: C[C@H](N)C(=O)N1C[C@H](O)C[C@H]1C(=O)NCC(=O)O [Example 25, Ala-Hyp-Gly] (H-Ala-[Hyp]-Gly-OH; N-terminus and C-terminus assumed)
inhibition at 350 µg/mL ([1]; Table 2): 14.6%
IC50 [1, 5]: 9450 µM

Molecule: GAIGPA [Example 12, Gly-Ala-Ile-Gly-Pro-Ala]
inhibition at 350 µg/mL ([1]; Table 1): 71.5%
IC50 [1, 4]: 285 µM

Molecule: GAIGPS [Example 13, Gly-Ala-Ile-Gly-Pro-Ser]
inhibition at 350 µg/mL ([1]; Table 1): 70.4%
IC50 [1, 4]: 314 µM

Molecule: GAVGP [Example 15, Gly-Ala-Val-Gly-Pro]
inhibition at 350 µg/mL ([1]; Table 1): 40.9%
IC50 [1, 4]: 1200 µM

Molecule: GAVGPA [Example 14, Gly-Ala-Val-Gly-Pro-Ala]
inhibition at 350 µg/mL ([1]; Table 1): 63.7%
IC50 [1, 4]: 437 µM

Molecule: GPAGPI [Example 4, Gly-Pro-Ala-Gly-Pro-Ile]
IC50 [1, 4]: 50 µM

Molecule: GPAGPR [Example 2, Gly-Pro-Ala-Gly-Pro-Arg]
IC50 [1, 4]: 80 µM

Molecule: GPIGPV [Example 6, Gly-Pro-Ile-Gly-Pro-Val]
IC50 [1]: 9.3 µM

Molecule: GPLGPV [Example 5, Gly-Pro-Leu-Gly-Pro-Val]
IC50 [1, 4]: 24 µM

Molecule: H-GPAGP-OH [Example 1, Gly-Pro-Ala-Gly-Pro]
inhibition at 350 µg/mL ([1]; Table 1): 95.8%
IC50 [1, 4]: 60 µM

Molecule: LPGPA [Example 18, Leu-Pro-Gly-Pro-Ala]
inhibition at 350 µg/mL ([1]; Table 2): 94.9%
IC50 [1, 5]: 63 µM

B1: Gly-Ala (peptide)
peptide: GA
IC50 value [2]: 3340 µM
Inhibition rate (%) at 0.35 mg/ml time [2]: 42.5%

B2: Gly-Ala-Val-Gly-Pro-Ala (peptide)
peptide: GAVGPA
IC50 value [2]: 437 µM
Inhibition rate (%) at 0.35 mg/ml time [2]: 63.7%

B7: Gly-Ala-Ile-Gly-Pro-Ala (peptide)
peptide: GAIGPA
IC50 value [2]: 285 µM
Inhibition rate (%) at 0.35 mg/ml time [2]: 71.5%

B8: Gly-Pro-Ala-Gly-Pro (peptide)
peptide: GPAGP
IC50 value [2]: 60 µM
Inhibition rate (%) at 0.35 mg/ml time [2]: 95.8%

B9: Ala-Pro-Gly (peptide)
peptide: APG
IC50 value [3]: 30 µM
Inhibition rate (%) at 0.35 mg/ml time [3]: 98.7%

B10: Gly-Ala-Val-Gly-Pro (peptide)
peptide: GAVGP
IC50 value [2]: 1200 µM
Inhibition rate (%) at 0.35 mg/ml time [2]: 40.9%

B12: Gly-Ala-Hyp (peptide)
peptide: Gly-Ala-[Hyp]
Inhibition rate (%) at 0.35 mg/ml time [2]: 0%

B14: Gly-Pro-Ala-Gly (peptide)
peptide: GPAG
IC50 value [2]: 150 µM

B15: Gly-Ala-Ile-Gly-Pro-Ser (peptide)
peptide: GAIGPS
IC50 value [2]: 314 µM
Inhibition rate (%) at 0.35 mg/ml time [2]: 70.4%

B22: Gly-Pro-Ala-Gly-Pro-Arg (peptide)
peptide: GPAGPR
IC50 value [2]: 80 µM

Other lines, results leading:

Inhibition rate (%) at 0.35 mg/ml time ([1]; Table 1): 0%
IC50 value [1, 6]: No inhibitory
Molecule: Gly-Ala-Hyp (Gly-Ala-[Hyp]) [compound 2, reference compound]

Inhibition rate (%) at 0.35 mg/ml time ([1]; Table 1): 0%
IC50 value [1, 6]: No inhibitory
Molecule: Gly-Pro-Hyp (Gly-Pro-[Hyp]) [Comparative Example 1, reference compound]

IC50 value [2]: 50 µM
B3: Gly-Pro-Ala-Gly-Pro-Ile (peptide)
peptide: GPAGPI

IC50 value [2]: 24 µM
B4: Gly-Pro-Leu-Gly-Pro-Val (peptide)
peptide: GPLGPV

IC50 value [2]: 9.3 µM
B5: Gly-Pro-Ile-Gly-Pro-Val (peptide)
peptide: GPIGPV

Inhibition rate (%) at 0.35 mg/ml time [2]: 0%
B6: Gly-Pro-Hyp (peptide)
peptide: Gly-Pro-[Hyp]

IC50 value [3]: 130 µM
Inhibition rate (%) at 0.35 mg/ml time [3]: 89.3%
B11: Leu-Hyp-Gly (peptide)
peptide: Leu-[Hyp]-Gly

IC50 value [2]: 310 µM
Inhibition rate (%) at 0.35 mg/ml time [2]: 80.2%
B13: Gly-Pro-Gln (peptide)
peptide: GPQ

IC50 value [3]: 50 µM
B16: Leu-Pro-Gly (peptide)
peptide: LPG

IC50 value [3]: 110 µM
Inhibition rate (%) at 0.35 mg/ml time [3]: 92.1%
B17: Leu-Pro (peptide)
peptide: LP

IC50 value [2]: 78200 µM
Inhibition rate (%) at 0.35 mg/ml time [2]: 10.2%
B18: Gly-Pro-Pro (peptide)
peptide: GPP

IC50 value [3]: 1320 µM
Inhibition rate (%) at 0.35 mg/ml time [3]: 48.6%
B19: Leu-Hyp (peptide)
peptide: Leu-[Hyp]

IC50 value [3]: 63 µM
Inhibition rate (%) at 0.35 mg/ml time [3]: 94.9%
B20: Leu-Pro-Gly-Pro-Ala (peptide)
peptide: LPGPA

IC50 value [2]: 194 µM
Inhibition rate (%) at 0.35 mg/ml time [2]: 86.4%
B21: Gly-Pro-Glu (peptide)
peptide: GPE

IC50 value [2]: 70 µM
B23: Gly-Pro-Ala-Gly-Pro-Hyp (peptide)
peptide: GPAGP[Hyp]

IC50 value [2]: 370 µM
Inhibition rate (%) at 0.35 mg/ml time [2]: 76.5%
B24: Gly-Pro-Val (peptide)
peptide: GPV

— patent US9340579B2, “DPP-4 inhibitor” (NIPPI, INCORPORATED, priority 2011, dated 2016)
